# Reference: patent US9907853B2, “Approach to treatment of hyperglycemia using a nanoparticle encapsulated peptide” (University of Rochester, priority 2016, dated 2018)
# Residues, ends and D or L forms follow the SMILES beside them. No end group written: not given here. *: point of attachment. Myristoyl = CCCCCCCCCCCCCC(=O)*
# Assays:
# [1] = target: T1, IRK (insulin receptor β-subunit) (Homo sapiens, UniProt P06213); assay: IRK autophosphorylation in vitro ([32P]-ATP); assay type: biochemical; conditions: 20 μM peptide
# T1 construct: Insulin receptor β-subunit (IRK); purchased Enzo Life Sciences (Farmingdale, N.Y.)
# Procedure: (§1) FIG. 4A depicts P2 stimulate IRK autophosphorylation in vitro. IRK was incubated in vitro with 20 μM of peptide P2 (KYCCSRK (SEQ ID NO: 2)), peptide a (KKRILHC (SEQ ID NO: 5)) or peptide b (KRNRYLSF (SEQ ID NO: 6)) and [^32P]-ATP. The [^32P] incorporation was quantified. FIG. 4B depicts P2 stimulate IRK kinase activity in vitro; identification of IRK inhibitory peptide. A similar assay was performed as in FIG. 4A, except that the IRK peptide substrate was included. FIG. 4C depicts P2 is both a substrate and activator of IRK kinase activity in vitro. Assays using sequence variant (P2Y-F; KFCCSRK (SEQ ID NO: 9)) of P2 were performed as in FIG. 4B. FIG. 4D depicts P2 stimulates IRK kinase activity in the cell; peptide “a” is an inhibitor. […] The activity as measured in four livers of P2 injected and four control mice is shown.
# (§2) Purified IRK was assayed as previously (Lerner-Marmarosh et al., 2005, PNAS 102:7109-14), using 300 μM IRS-1 Y608 peptide substrate. IRK autophosphorylation was determined as described earlier (Gibbs et al., 2012, J Biol Chem 287:1066-79). hBVR-based peptides (20 μM) were added as activators or inhibitors. […] Incorporation of ^32P was determined by liquid scintillation counting. […] Immunoprecipitates bound to protein A/G-agarose were washed in lysis buffer, followed by IRK assay buffer, and kinase activity was measured as before (Lerner-Marmarosh et al., 2005, PNAS 102:7109-14). […]
# [2] = system: human skeletal muscle (HSKM) cells; assay: 3H-deoxyglucose uptake in human skeletal muscle cells; assay type: cell-based; conditions: 2 hours treatment, 20 μM peptide (insulin added with 3H-deoxyglucose)
# Procedure: Insulin, when used, was added at the same time as 3H-deoxyglucose. * P<0.05, ** P<0.01. […] HSKM cells were starved overnight as in described in FIG. 2A. […] Glucose uptake was measured as in A. […] Treatment with peptide nanoparticles was for 1 h. Glucose uptake was measured as described in FIG. 2A. Cultures of HEK293 were maintained in DMEM with 10% FBS. Cells were starved overnight in medium with 0.1% FBS. When used, insulin was added to serum-starved cultures at 100 nM. Human skeletal muscle cells were maintained in 1:1 DMEM:F12 medium containing 15% FBS. […] Cells were washed 3 times with cold PBS and solubilized in 150 μl 50 mM NaOH. Radioactivity was measured and normalized to protein concentration. Assessments were made in triplicate and experiments were repeated three times.
# [3] = system: HepG2 cells; assay: 3H-deoxyglucose uptake in HepG2 cells; assay type: cell-based; conditions: starved overnight, 1 h treatment
# Procedure: FIG. 2A depicts Nanoparticle delivery of peptide P2 to human skeletal muscle (HSKM) cells stimulates glucose uptake. HSKM cells were grown in low glucose, low FBS medium overnight, then media was replaced with PBS containing 1% BSA for 1 h. Cells were pretreated for 2 hours with 20 μM myristoylated P2 or with 10 or 20 μM P2-nanoparticles, followed by measuring 3H-deoxyglucose uptake over a 15 minutes interval. Insulin, when used, was added at the same time as 3H-deoxyglucose. * P<0.05, ** P<0.01. FIG. 2B depicts a time course of glucose uptake stimulation by P2. HSKM cells were starved overnight as in described in FIG. 2A. Medium was changed to glucose-free DMEM with 1% BSA for 1 hour prior to treatment with 20 μM myr-P2 or with P2-nanoparticles for the indicated times. Glucose uptake was measured as in A. FIG. 2C depicts P2-nanoparticles affect glucose uptake in HepG2 cells. HepG2 cells were starved in low glucose DMEM with 0.1% FBS overnight. Treatment with peptide nanoparticles was for 1 h. Glucose uptake was measured as described in FIG. 2A.
# Glucose uptake was assessed using 2-deoxy 1-[^3H] glucose as described previously (Lerner-Marmarosh et al., 2005, PNAS 102:7109-14), with modification. […] Radioactivity was measured and normalized to protein concentration. […]
# [4] = system: GSK3α; assay: GSK3α phosphorylation in HEK cells (Western blot); assay type: cell-based; conditions: 40 μM myristoylated peptide 15 minutes or insulin 100 nM
# Procedure: (§3) FIG. 6A depicts Phosphorylation of GSK3α in P2-stimulated cells. Lysates of cells treated as in FIG. 5A were analyzed by Western blot; the blot was probed sequentially with antibodies to phospho-GSK3α-S21 and GSK3α. The signals were quantified by densitometry. FIG. 6B depicts Phosphorylation of GSK3β in P2-stimulated cells. Identical samples to those in FIG. 6A were probed with anti-phospho-GSK3β-S9 antibody, followed by anti-GSK3β.
# HEK cells were incubated in low glucose DMEM with 0.1% FBS, overnight. Cells were treated with 40 μM myristoylated peptide for a total of 15 min; insulin or IGF-1, if used, were included for the final 10 minutes. Cells were harvested, lysed in buffer with triton ×100, and whole cell lysates were analyzed for phosphorylated Akt (T^308, S^473) or GSK3 (α-S^21, β-S^9) species by Western blotting. Each blot was stripped and probed with anti-Akt1 or anti GSK3α or GSK3β antibody, as appropriate, to control for loading.
# [5] = system: GSK3β; assay: GSK3β phosphorylation in HEK cells (Western blot); assay type: cell-based; conditions: 40 μM myristoylated peptide 15 minutes or insulin 100 nM
# Procedure: as §3, with “anti-GSK3β. […] Cells were harvested, lysed in buffer with triton ×100, and whole cell lysates were analyzed for phosphorylated Akt (T^308, S^473) or GSK3 (α-S^21, β-S^9) species by Western blotting. Each blot was stripped and probed with anti-Akt1 or anti GSK3α or GSK3β antibody, as appropriate, to control for loading.” for “anti-GSK3β.”
# [6] = system: Akt1; assay: Akt kinase activity immunoprecipitated from HEK cells, Crosstide substrate; assay type: cell-based; conditions: genistein 50 μM added 30 minutes prior to peptide or insulin
# Procedure: Cells were serum starved overnight, and treated with myristoylated peptides and insulin as in FIG. 5A. Genistein (50 μM) was added to cells 30 minutes prior to treatment with peptide or insulin. Akt1 was immunoprecipitated from the lysates and kinase activity was measured using Crosstide as substrate.
# Thus, Akt kinase activity was measured in cells loaded with either P2 or the scrambled P2 peptide, P2sc. Cell lysates were immunoprecipitated with anti-Akt antibody and immunoprecipitates were examined for phosphorylation of crosstide, an Akt specific substrate.
# [7] = target: T2, IRK (Homo sapiens, UniProt P06213); assay: IRK kinase activity immunoprecipitated from peptide-treated HEK cells; assay type: cell-based; set-up: IRK was immunoprecipitated from cell lysates and assayed using the IRS peptide as substrate; endogenous in cells; host or cells: HEK293; conditions: 40 μM myristoylated peptide, 15 minutes
# Procedure: as §1, §2
# [8] = target: T2, IRK; conditions: cited from earlier work
# [9] = target: T1, IRK (insulin receptor β-subunit); assay: IRK kinase activity in vitro towards IRS peptide substrate; assay type: biochemical; conditions: 20 μM peptide
# Procedure: as §1, §2
molecule,measurement,setting,value
"myr-KRNRYLSF (SEQ ID NO: 6) (Myristoyl-KRNRYLSF) [peptide (b), BVR based peptide]",IRK autophosphorylation ([32P] incorporation),[1],did not lead to increased [^32P] incorporation
insulin,glucose uptake,[2],stimulated glucose uptake to about the same extent
same,glucose uptake,[3],more robust response
same,phosphorylation of GSK3α at S21,[4],enhanced phosphorylation
same,phosphorylation of GSK3β at S9,[5],enhanced phosphorylation
O=c1c(-c2ccc(O)cc2)coc2cc(O)cc(O)c12 [genistein],Akt activation by either insulin or P2,[6],prevented Akt activation
"myr-KKRILHC (SEQ ID NO: 5) (Myristoyl-KKRILHC) [peptide (a), BVR based peptide]",IRK autophosphorylation ([32P] incorporation),[1],did not lead to increased [^32P] incorporation
same,effect on IRK kinase activity in the cell,[7],potent inhibitor of the kinase
"CCCCCCCCCCCCCC(=O)N[C@@H](CCCCN)C(=O)N[C@@H](Cc1ccc(O)cc1)C(=O)N[C@@H](CS)C(=O)N[C@@H](CS)C(=O)N[C@@H](CO)C(=O)N[C@@H](CCCNC(=N)N)C(=O)N[C@@H](CCCCN)C(=O)O [P2, myr-KYCCSRK (SEQ ID NO: 2)] (Myristoyl-KYCCSRK-OH; N-terminus and C-terminus assumed)",Km of the kinase,[8],without changing Km
KFCCSRK (SEQ ID NO: 9) [P2Y-F],effect on IRK kinase activity / substrate phosphorylation,[9],significant decrease in substrate phosphorylation
